Test system: naïve central trigeminovascular neurons (HT, WDR) in the spinal trigeminal nucleus
Experiment: Single-unit recording of spontaneous and evoked activity of naïve trigeminovascular neurons
Type: in vivo, rat
Conditions: 30 mg/kg i.v.; for effect on spontaneous activity of naïve HT and WDR neurons: 1-4 hours post-treatment vs baseline
Text: Experiments were approved by the Beth Israel Deaconess Medical Center and Harvard Medical School standing committees on animal care, and in accordance with the U.S. National Institutes of Health Guide for the Care and Use of Laboratory Animals. Male and female Sprague-Dawley rats (250-350 g) were anesthetized with urethane (0.9-1.2 g/kg i.p.). They were fitted with an intra-tracheal tube to allow artificial ventilation (0.1 L/min of O2), and an intra-femoral-vein cannula for later infusion of drugs. Rats were placed in a stereotaxic apparatus, and core temperature was kept at 37° C. using a heating blanket. End-tidal CO2 was continuously monitored and kept within physiological range (3.5-4.5 pCO2). Once stabilized, rats were paralyzed with rocuronium bromide (10 mg/ml, 1 ml/hr continuous intravenous infusion) and ventilated. For stimulation of the cranial dura later in the experiment, a 5×5-mm opening was carefully carved in the parietal and occipital bones in front and behind the lambda suture, directly above the left transverse sinus. The exposed dura was kept moist using a modified synthetic interstitial fluid (135 mM NaCl, 5 mM KCl, 1 mM MgCl2, 5 mM CaCl2), 10 mM glucose and 10 mM Hepes, pH 7.2). For single-unit recording in the spinal trigeminal nucleus, a segment of the spinal cord between the obex and C2 was uncovered from overlying tissues, stripped of the dura mater, and kept moist with mineral oil.
To record neuronal activity, a tungsten microelectrode (impedance 3-4 MΩ) was lowered repeatedly into the spinal trigeminal nucleus (STN) in search of central trigeminovascular neurons receiving convergent input from the dura and facial skin. Trigeminovascular neurons were first identified based on their responses to electrical stimulation of the dura. […] Dural receptive fields were mapped by indenting the dura (with the 4.19 g VFH monofilament) at points separated by 1 mm mediolaterally and rostrocaudally. Points at which dural indentation produced a response in ≥50% of the trials were considered inside the neurons receptive field. Cutaneous receptive fields were mapped by applying innocuous and noxious mechanical stimulation to all facial skin areas and the cornea. An area was considered outside the receptive field if no stimulus produced a response in ≥50% of the trials. Responses to mechanical stimulation of the skin were determined by applying brief (10 s) innocuous and noxious stimuli to the most sensitive portion of the cutaneous receptive field. Innocuous stimuli consisted of slowly passing a soft bristled brush across the cutaneous receptive field (one 5-s brush stroke from caudal to rostral and one 5-s brush stroke from rostral to caudal) and pressure applied with a loose arterial clip. Noxious stimuli consisted of pinch with a strong arterial clip (Palecek et al., 1992, J. Neurophysiol. 67:1562-1573; Dado et al., 1994, J. Neurophysiol. 71:981-1002; Burstein et al., 1998, J. Neurophysiol. 79:964-982). More intense or prolonged stimuli were not used to avoid inducing prolonged changes in spontaneous neuronal discharge or response properties. Responses to mechanical stimulation of the cornea consisted of gentle and slow brushing strokes with a thin paintbrush (about 10 hair-follicles). Two classes of neurons were thus identified: wide-dynamic-range (WDR) neurons (incrementally responsive to brush, pressure and pinch), and high-threshold (HT) neurons (unresponsive to brush). Real-time waveform discriminator was used to create and store a template for the action potential evoked in the neuron under study by electrical pulses on the dura; spikes of activity matching the template waveform were acquired and analyzed online and offline using Spike 2 software (CED, Cambridge, UK).
It was diluted in saline to a final dose of 30 mg/kg and administered intravenously (bolus injection, total volume 0.6-0.7 ml). […]

B1: G1: humanized monoclonal anti-CGRP antagonist antibody; heavy chain SEQ ID NO:11, light chain SEQ ID NO:12 (antibody)
heavy: EVQLVESGGGLVQPGGSLRLSCAASGFTFSNYWISWVRQAPGKGLEWVAEIRSESDASATHYAEAVKGRFTISRDNAKNSLYLQMNSLRAEDTAVYYCLAYFDYGLAIQNYWGQGTLVTVSSASTKGPSVFPLAPCSRSTSESTAALGCLVKDYFPEPVTVSWNSGALTSGVHTFPAVLQSSGLYSLSSVVTVPSSNFGTQTYTCNVDHKPSNTKVDKTVERKCCVECPPCPAPPVAGPSVFLFPPKPKDTLMISRTPEVTCVVVDVSHEDPEVQFNWYVDGVEVHNAKTKPREEQFNSTFRVVSVLTVVHQDWLNGKEYKCKVSNKGLPSSIEKTISKTKGQPREPQVYTLPPSREEMTKNQVSLTCLVKGFYPSDIAVEWESNGQPENNYKTTPPMLDSDGSFFLYSKLTVDKSRWQQGNVFSCSVMHEALHNHYTQKSLSLSPGK
light: EIVLTQSPATLSLSPGERATLSCKASKRVTTYVSWYQQKPGQAPRLLIYGASNRYLGIPARFSGSGSGTDFTLTISSLEPEDFAVYYCSQSYNYPYTFGQGTKLEIKRTVAAPSVFIFPPSDEQLKSGTASVVCLLNNFYPREAKVQWKVDNALQSGNSQESVTEQDSKDSTYSLSSTLTLSKADYEKHKVYACEVTHQGLSSPVTKSFNRGEC
For B1, the “effect on spontaneous activity of naïve HT and WDR neurons” value (female rats) was “did not reduce the spontaneous activity of HT or WDR neurons”, the “decrease of firing of HT neurons in response to dural indentation” value (female rats, p=0.017) was 61% and the “effect on sensitivity to mechanical stimulation of the dura (dural indentation), HT and WDR neurons” value (male and female rats) was “reduced the sensitivity to mechanical stimulation of the dura in the HT but not the WDR neurons”. For the same molecule, the “effect on responses to innocuous (brush, pressure) or noxious (pinch) mechanical stimulation of the skin or the cornea” value (male or female rats, HT or WDR neurons) was “did not alter the responses of HT or WDR neurons”, the “effect on spontaneous activity of naïve HT and WDR neurons” value (male rats) was “reduced the spontaneous activity of the HT but not the WDR neurons” and the “decrease of firing of HT neurons in response to dural indentation” value (male rats, p=0.047) was 75%. The “decrease of spontaneous neuronal firing, HT neurons” value (male rats, within 3-4 hrs, p=0.040) was 90%.

Source: patent US20190071490A1, “Preventing Post-Ictal Headaches” (Beth Israel Deaconess Medical Center, Inc., priority 2017, published 2019)
